In paper PMC7076459, “Biochemical and Molecular Characterization of PvNTD2, a Nucleotidase Highly Expressed in Nodules from Phaseolus vulgaris” (Plants, 2020):

T1: PvNTD2 (Phaseolus vulgaris, UniProt V7AIP8)
T1 construct: gene PHAVU_011G182400g; ORF without predicted signal peptide (cleavage predicted between 24 and 25)
T1 sequence (V7AIP8 25-269): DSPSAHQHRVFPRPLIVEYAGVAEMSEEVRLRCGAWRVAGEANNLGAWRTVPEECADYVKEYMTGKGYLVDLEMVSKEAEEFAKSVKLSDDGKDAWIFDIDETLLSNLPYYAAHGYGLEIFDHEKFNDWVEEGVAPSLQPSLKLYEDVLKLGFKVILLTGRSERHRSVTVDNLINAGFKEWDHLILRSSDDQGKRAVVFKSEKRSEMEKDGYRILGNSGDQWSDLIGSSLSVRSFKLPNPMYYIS

B1: PvNTD2 (Phaseolus vulgaris) (protein)
chain: T1 sequence (V7AIP8 25-269)
notes: ORF without predicted signal peptide (cleavage predicted between 24 and 25)

Experiments:
[1] = target: T1, PvNTD2; assay: phosphate release, inhibition of phosphatase activity; format: biochemical; settings: 2 mM UMP substrate (other nucleotides also tested), pH 7, 1 mM MgCl2, 37 °C; reaction product
[2] = substrate: Cc1cn([C@H]2C[C@H](O)[C@@H](COP(=O)(O)O)O2)c(=O)[nH]c1=O; assay: phosphate release, Hanes-Woolf plot; format: biochemical, Phaseolus vulgaris; settings: 50 mM TES-NaOH pH 7, 1 mM MgCl2, 37 °C
Text: (§1) phosphate release, Hanes-Woolf plot on PvNTD2

[3] = substrate: Nc1ncnc2c1ncn2[C@@H]1O[C@H](COP(=O)(O)O)[C@@H](O)[C@H]1O; assay: phosphate release, Hanes-Woolf plot; format: biochemical, Phaseolus vulgaris; settings: 50 mM TES-NaOH pH 7, 1 mM MgCl2, 37 °C
Text: as §1

[4] = substrate: O=c1[nH]c(=O)c2ncn([C@@H]3O[C@H](COP(=O)(O)O)[C@@H](O)[C@H]3O)c2[nH]1; assay: phosphate release, Hanes-Woolf plot; format: biochemical, Phaseolus vulgaris; settings: 50 mM TES-NaOH pH 7, 1 mM MgCl2, 37 °C
Text: as §1

[5] = substrate: O=c1ccn([C@@H]2O[C@H](COP(=O)(O)O)[C@@H](O)[C@H]2O)c(=O)[nH]1; assay: phosphate release, Hanes-Woolf plot; format: biochemical, Phaseolus vulgaris; settings: 50 mM TES-NaOH pH 7, 1 mM MgCl2, 37 °C
Text: as §1

Molecule | % activity at 0.2 mM [1] | Km [2] | Vmax [2] | Km [3] | Vmax [3] | Km [4] | Vmax [4] | Km [5] | Vmax [5]
Nc1ncnc2c1ncn2[C@@H]1O[C@H](CO)[C@@H](O)[C@H]1O [adenosine] | The activity of the recombinant protein was strongly inhibited in the presence of adenosine | – | – | – | – | – | – | – | –
B1 | – | 63 µM | 4.08 µmol/min/mg | 11 µM | 1.46 µmol/min/mg | 95 µM | 4.22 µmol/min/mg | 39 µM | 4 µmol/min/mg
